Converted amounts (≈) assume the structure as drawn. Each block holds one compound with its values, some of them ahead of it.
Legend:
O=CC(O)CO = experiment: purified protein; conditions: no extract, 0.15 mM NADPH, DL-glyceraldehyde 5-25 mM, 100 mM sodium phosphate pH 6.2
[1] = target: T1, SD (sorbitol dehydrogenase); experiment: absorbance change at […] nm (NAD+ reduction); format: biochemical; conditions: 0.5 mM NAD+, 100 mM sorbitol, 100 mM Tris-HCl pH 9.0
T1 construct: gene SORD; purchased from Sigma-Aldrich; human recombinant cannot be excluded

[2] = tested on: T1, SD (sorbitol dehydrogenase); experiment: absorbance change at […] nm, Lineweaver-Burk; format: biochemical; conditions: no extract; 0.5 mM NAD+, sorbitol 50-250 mM, 100 mM Tris-HCl pH 9.0

Compound: human recombinant AR (aldose reductase) (Homo sapiens)
Km (O=CC(O)CO): 5.51 mM
Vmax (O=CC(O)CO): 0.069 µM/min

IC50 [1]: 8.14 ± 2.27 µg/mL (≈ 26.9 µM)
Compound: O=c1c(O)c(-c2ccc(O)c(O)c2)oc2cc(O)cc(O)c12 [quercetin]

Km [2]: 44.7 mM
Compound: OC[C@@H](O)[C@@H](O)[C@H](O)[C@@H](O)CO [sorbitol]

From article PMC11701329, “Inhibition of the polyol pathway by Ducrosia anethifolia extract: plausible implications for diabetic retinopathy treatment” (Frontiers in Pharmacology, 2024)
